# In the supplement of paper PMC9170038:
# System: K4 kissing-loop RNA reporter
# Experiment: apparent KD of K4 kissing-loop reporter; higher = weaker reporter binding
# Details: Eterna round: R107
# Description: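 RNA-MaP round R107: designed RNA switches with theophylline, tryptophan, arginine or FMN aptamers are transcribed on-chip within common flanks. They are titrated with a labelled K4 kissing-loop RNA reporter in RNA-MaP buffer (100 mM Tris pH 7.5, 80 mM KCl, 4 mM MgCl2), without ligand or with the indicated ligand. Median apparent KD per design.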
# [1] = input ligand: theophylline 20 uM
# [2] = input ligand: tryptophan 2.4 mM
# 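Also: bound reporter read as fluorescence of individual clusters on recovered sequencing chips by microscopy, with normalized cluster intensities fitted with a binding model.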
Sequence,apparent KD of K4 kissing-loop reporter (input ligand: FMN 200 uM) [nM],apparent KD of K4 kissing-loop reporter (input ligand: arginine 13.2 mM) [nM],apparent KD of K4 kissing-loop reporter (input ligand: none) [nM],apparent KD of K4 kissing-loop reporter [1] [nM],apparent KD of K4 kissing-loop reporter [2] [nM]
GUAGGAUGAGGAGGAGGAAGAAAUACUGAAGGAGCGCAAAGAAAUGCAGGUAGGUCGCGGUAAAGAAGUAUAGUGAUGUUAUAUA [SSArgA.C],452,450,406,411,373
CACCGGACGAAAGAUACCAGUUACUAUAUUAGGGUGCCUUGGCUAGUGAUGUUAGAGAGUAACCCUUGGCAGCUUUGGUACUUAU [theeternabot_exclusion_KL_Theo_B_21],380,367,390,319,335
UUUGGUUUCUCGGCCGCCACUCGUUGUCUAUGGGCUUCAGGGAUAUAGUGAUGUUAUGUAUAGAAGAGGACCGGGAGAAGGUUUU [ExTryptoB.Dv],427,77.9,683,42.3,161
UGUCAUUGGUCUGAUACCAGAAGAUAUUCUGGAGUGAUGUUCCAAGUACGACAAAGUCGCUUCCCUUGGCAGCAGACCGAUGACU [TheoBS 20 #SwitchBubble 13 #StaticStem],471,195,617,501,690
UAAUAUAAUCUGUCGUUUACAAUAUUUAGUCAGGAUAUCGUAUAUUCGAGAAGGGACACUAUCUAGUGAUGUUAGAUAUUUCUUU [JR_ExcFMNA_Sub014],47.9,78.1,55.9,67,51.9
GCAGUGAUGUUGCGCGGGUACAGUGGAGUGCGAGGACCGGUACGGCCGCCACUCGUACAGAACUGGCUAAUAUAUGGAUAGGUGA [VII],271,169,305,169,210
GCUAUGGUAGGAAGGAGCGCUACUUUGUUUUUACGAGUGAUGUUCGGAAGCAGAGUGUUAAAGCAGGUAGGUCGCCUACUAUAGC [Arginine B K4 20],171,154,171,181,197
GCACUUCUCAGUGAUGUUGAGUAAUCGGAAGGAGCGCGUGAAAACGCAGGUAGGUCGCCGAUACAUGAAGUAUCUUCGUGUGUGC [Arginine A K4 25],306,235,295,279,216
UGUACCGAGUUAGGAUAUGUCGUCGAAAGACGAAAUGGAGUGAUGUUCCUUAAACUGCGAAAGCAGACAGAAGGAACUUGGUACU [FmnBS 29 U11+A75],190,627,544,546,476
GCGUUAGUACUCGAUACCAGACCUCUAGUAGUGAUGUUGCUUGGCGAAGGCCUCGAACGAGUCCCUUGGCAGCGAGGAAAGAGGA [theeternabot_sameState_KL_Theo_B_4],506,387,584,376,450
GCCGUAGAUUGAAGGAGCGCCUUCUUACCAAGAGUGAUGUUCUUUGGUACCAUGUUCAGCAGGCAGGUAGGUCGCAAUCUACGGC,195,142,188,155,169
AGUCCACUCUAAAGAGUGGACCUAAGGGAUACCAGUGAUGUUGGUCACCCUUGGCAGCCCACUGUCAUCGAUAAAGAUGGCAGGA,128,112,116,119,117
UCCUAGGCUCGAAAGAGCCUAGGAUUAUCUCAGGAUAUCCGGAAACGGAGAAGGGAGAAACUAGUGAUGUUAGGGAUUCCCUAUU,574,184,213,259,137
AGAGUUAUGCGAGGAUAUGCAGUUAGUACUCAAAGAGUACUAACGCAGAGUGAUGUUCUGUGAAACGCAGAAGGUGCAUAACUCA [Omei KL FMN B SS B v4],161,509,549,480,485
GAGAACUCUUACGAUACCAGCCGGAGUGAUGUUCCGCGCUUGGACGUAGUAACCCGCACCGGCCCUUGGCAGCGUGGAUCCUAUG [Bibiinor],91.1,81.2,86.1,86.8,80.5
AGACUACUGAUAGGAUAUAACAUCCUAGUCGUAUACCGAAAGGUAUACGAUAUCCUUCUAGUGAUGUUAGAAGGGUCGGUAGUCA [Omei KL FMN B Exc B v10],113,85.5,103,88.3,98.4

Sequence,apparent KD of K4 kissing-loop reporter (input ligand: FMN 200 uM) [nM],apparent KD of K4 kissing-loop reporter (input ligand: arginine 13.2 mM) [nM],apparent KD of K4 kissing-loop reporter (input ligand: none) [nM],apparent KD of K4 kissing-loop reporter [1] [nM],apparent KD of K4 kissing-loop reporter [2] [nM]
AGCUCAGAGUGACUCGAUAAGAGUCACAAACGAGGACCGGUACGGCCGCCACUCGAAAUAAUGGGAGUGAUGUUCUCACUGAGCA [#SwitchBubble 3 #StaticStem #K4Late],1030,719,1190,796,384
CACGAUGAAUUCUCUAGGAGUGAUGUUUUUCGAGGACCGGUACGGCCGCCACUCGGACGACGAGCGUGGUAGCGGCGUGAAGACU [zamullin],365,276,625,459,452
GGGUGGCAGGCGGCCGCCACUCUGAGGGUCCACAGUGAUGUUGUGGGCGCGUAAGCGUCUUCAUAGAGGACCGGGUUUGUUGUUC [Same State Tryptophan B GF 24],422,308,454,403,338
AAGCAGUCUCUUGUAGUCAUCGAAGAUGAACGAGGACCGGUACGGCCGCCACUCGGAGUGAUGUUCCGAAGACUGCAAAAUAAAA [MatMod 17 - Jieux - Exclusion - Tryptophan A],581,422,1010,765,180
UAUACUAGACAAGAGAGAAUUCUCUCAAGAGAGGAUAUCCGAAUUCGGAGAAGGCUCUCUCAGUGAUGUUGGGUAUAGUCUAGAA [AK7 SS FMN A],260,222,323,389,299
GAUACGUCAGUGAUGUUGAUGUAUUACACAGAGGAUAUCGUAAUGACGAGAAGGCUGAGCCAUCUAGAGAUACGUAAGACGUAUC [FMN A SS t5],154,196,184,188,205
UCGAUGGCCAGCGAUACCAGCCCAGUGAUGUUGGGCACAUGGUUGCGGGAAAUCCCAUUGGGCCCUUGGCAGCGCUUGCAUGGGU [Dizaisa],148,121,140,120,125
AUUAAUUUCAGAGGAUAUCGUAUUUAUAUUAUAUCUUUCCAUAUUUGCAGUGAUGUUGCAUUAAUUCGAGAAGGCUGAUUUAUAA [JR_Nu_ExcFMNB_Sub024],86.1,91,60.4,82.4,53.7
GGGAGCAAAGCUCCCGGAUGCUAUUACCAGGAGGAUAUCUGGAAACAGAGAAGGCCUAAGCCAGUGAUGUUGGUUUCGAGCAUCC,184,257,278,305,274
AGCUCAGAGUGACUCGAUAAGAGUCACAAACGAGGACCGGUACGGCCGCCACUCGAAAUAACGAGAGUGAUGUUCUCGCUGGGCA [FiskerMod 1 - Jieux - Same State Tryptophan A],829,463,1010,540,296
AGGUGAGACUGAAGGAGCGAUCGCGCCAGUGAUGUUGGUGAGCAUGACAAAGUCAUGCACGAUCAGGUAGGUCGCAGUCUUACUC [Omei KL Arginine B SS B v2],199,156,206,188,185
GAGGUACAGGCGGCCGCCACUAGUGAUGUUAGUGAUAGAAGAUAUAGUAAAUAUCGGCAUUUAGAUAGGACCGGGCCUGGUGGUG [ffdfcmullin],296,242,271,286,275
AAGAAGGUCAAAGACCUUCGUGCACCUGAUACCAGUCGCGAAAGCGACCCUUGGCAGCAGGGCAGUGAUGUUGCCAAGUGCACAA [Omei KL Theo A SS A v1],782,650,898,400,823
UGUCAUUGGUCGGCCGCCACUUCAUAAAGAGUGAUGUUCUUAAAGACGGAUCGAAAGAUCUGUCGAAGGACCGGGACCGAUGACU [FiskerMod 8 - Jieux - Same State - Tryptophan B],1330,1080,1500,927,196
AGUGAUAUAUGAGGAUAUGGGUUGGUUAAUGAGUUAGUUUUAGUGUUGUUUGGUUAGUGAUGUUAUUUAGAAGGCGUGAGUGAUG [sffdsmullin],99.6,88.3,81.8,95.8,71.8
GAAGUACAGGCGGCCGCCACUAGUGAUGUUAGUGAUAAAAGAUAUAGUAAAUAUCGGCAUGUAGAUAGGACCGGGCCUGAUGGAG [ggbgmullin],311,220,256,236,226
